Target: Hck (UniProt P08631)
Experiment: phosphorylation enrichment, bacterial display (enrichment ratio); higher = better substrate or ligand; peptides without Tyr show the background
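Further: 11-residue human phosphosite peptides and single-mutation variants displayed on the E. coli surface, counted by deep sequencing, each peptide's frequency after selection divided by its frequency in the unselected input library; frequency after pTyr selection over input frequency; kinase dosed for 20-30% of maximal phosphorylation in three min.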

Chain of Hck (P08631 whole entry, looked up): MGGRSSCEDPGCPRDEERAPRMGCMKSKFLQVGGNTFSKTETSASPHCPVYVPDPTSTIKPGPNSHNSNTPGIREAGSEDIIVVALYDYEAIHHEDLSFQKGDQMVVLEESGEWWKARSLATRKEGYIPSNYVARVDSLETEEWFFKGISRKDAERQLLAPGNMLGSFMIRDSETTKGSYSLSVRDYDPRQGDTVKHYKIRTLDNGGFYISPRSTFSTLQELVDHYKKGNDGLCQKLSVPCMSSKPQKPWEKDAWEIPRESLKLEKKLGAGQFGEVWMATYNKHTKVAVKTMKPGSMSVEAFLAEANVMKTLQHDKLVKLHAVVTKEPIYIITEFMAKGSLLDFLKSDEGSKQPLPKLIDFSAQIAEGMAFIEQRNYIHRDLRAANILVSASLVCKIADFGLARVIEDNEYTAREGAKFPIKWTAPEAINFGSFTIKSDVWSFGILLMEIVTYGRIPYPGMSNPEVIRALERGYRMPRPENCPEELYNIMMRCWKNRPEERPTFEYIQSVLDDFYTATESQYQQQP

Sequence | phosphorylation enrichment
KNNDGYTDFAE [MCFD2_Y135_I136T_YF] | 0.529
LITTLYISFLG [KCNQ1_Y267_G269S] | 1.15
FKEIVYAVSSD [DCX_Y70_G67E] | 2.25
RGKDSYETSQL [SPP1_Y225] | 0.412
LKKLEYLNLAL [LRRC6_Y70] | 0.489
QNAGDYFDLFG [PTPN11_Y62_T59A_YF] | 1.02
QSHKVYVQHLL [POR_Y604] | 0.858
IHSGIYYKPES [L2HGDH_Y102] | 5.38
TEAEPYFCSLR [NPHS1_Y1138_R1140C_YF] | 0.576
PDNEPYIFKVF [PIK3AP1_Y553] | 0.758
LKGQVYILVRE [ASS1_Y359_G362V] | 0.454
RNAAEYLLSSG [ABL1_Y139] | 0.48
EDGCIYPGTIA [SMN1_Y109_A111G] | 0.552
VNKIFHPDFIV [LIG3_Y768_Y768H_YF] | 0.39
ALKWGYTVKGI [OAT_Y158_R154L] | 0.341
GISDEYHVIRH [GCDH_Y398] | 0.962
DFFDLYGGQKF [PTPN11_Y66_E69Q_YF] | 8.96

Sequence | phosphorylation enrichment
FPLAEYTEVKT [ALDH1A3_Y497_A493P_YF] | 0.54
VSSSDYFSFVL [USP24_Y2138_Y2134S] | 2.49
QEGPEYWDQNT [HLA-A_Y83_E87N] | 0.632
LSDGPYSNSFE [EPOR_Y485_P488S_YF] | 0.915
SSMIDYNTLEK [MYOC_Y479_P481T] | 0.482
GEDEPYSEPYA [APBA1_Y183] | 0.477
NWGKKYPTCNS [PTPRZ1_Y53] | 0.463
HEVHIYEKSGA [ARPC1B_Y35] | 1.68
FSAPNYCYRCG [PPP2CA_Y265] | 0.414
YQSKHYACIRQ [TIMP3_Y182] | 0.55
HNVAIYEGFAL [ACTC1_Y168_P166A_YF] | 9.95
ILGTYYETGSI [PAX2_Y73_R71T] | 2.99
ILGTFYETGSI [PAX2_Y73_R71T_YF] | 0.621
FESPRYLQVHI [FANCA_Y488] | 0.564
REEIKYMLWLS [OTC_Y55_G50R] | 0.786
ANVKWYRSGRE | 0.412

Target: Jak2 (UniProt O60674)
Sequence (O60674 whole entry, looked up): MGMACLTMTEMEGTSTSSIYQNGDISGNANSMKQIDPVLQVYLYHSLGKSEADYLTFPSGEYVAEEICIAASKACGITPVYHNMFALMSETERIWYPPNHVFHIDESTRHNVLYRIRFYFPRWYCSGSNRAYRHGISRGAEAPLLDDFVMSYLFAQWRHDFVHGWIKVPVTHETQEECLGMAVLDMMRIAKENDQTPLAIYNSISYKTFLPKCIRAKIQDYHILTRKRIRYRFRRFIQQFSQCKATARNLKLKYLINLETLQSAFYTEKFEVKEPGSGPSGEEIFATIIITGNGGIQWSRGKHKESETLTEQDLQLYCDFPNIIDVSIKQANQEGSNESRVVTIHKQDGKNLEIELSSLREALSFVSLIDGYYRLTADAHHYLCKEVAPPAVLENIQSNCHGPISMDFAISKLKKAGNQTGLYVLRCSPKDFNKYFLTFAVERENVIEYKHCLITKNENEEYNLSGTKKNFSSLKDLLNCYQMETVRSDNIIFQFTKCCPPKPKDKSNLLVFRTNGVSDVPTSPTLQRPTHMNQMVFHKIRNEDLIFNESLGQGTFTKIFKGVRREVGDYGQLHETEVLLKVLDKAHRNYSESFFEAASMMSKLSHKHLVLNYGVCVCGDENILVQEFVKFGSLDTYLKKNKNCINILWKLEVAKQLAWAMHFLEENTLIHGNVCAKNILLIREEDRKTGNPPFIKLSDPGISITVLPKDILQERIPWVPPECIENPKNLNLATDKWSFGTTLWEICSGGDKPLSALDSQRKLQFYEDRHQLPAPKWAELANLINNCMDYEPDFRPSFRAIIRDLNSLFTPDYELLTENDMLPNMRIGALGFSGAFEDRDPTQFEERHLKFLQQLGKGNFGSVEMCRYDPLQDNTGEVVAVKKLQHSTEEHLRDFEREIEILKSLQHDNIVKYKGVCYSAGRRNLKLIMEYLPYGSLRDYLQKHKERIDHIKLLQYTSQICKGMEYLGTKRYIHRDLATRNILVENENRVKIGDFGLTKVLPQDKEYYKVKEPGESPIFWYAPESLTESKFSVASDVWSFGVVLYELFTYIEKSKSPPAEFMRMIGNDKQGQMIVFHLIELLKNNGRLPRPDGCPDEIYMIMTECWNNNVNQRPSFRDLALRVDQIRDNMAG
Experiment: as above

Sequence | phosphorylation enrichment
KNNDGYTDFAE [MCFD2_Y135_I136T_YF] | 0.882
LITTLYISFLG [KCNQ1_Y267_G269S] | 2.27
FKEIVYAVSSD [DCX_Y70_G67E] | 0.921
RGKDSYETSQL [SPP1_Y225] | 0.643
LKKLEYLNLAL [LRRC6_Y70] | 1.23
QNAGDYFDLFG [PTPN11_Y62_T59A_YF] | 13.4
QSHKVYVQHLL [POR_Y604] | 0.798
IHSGIYYKPES [L2HGDH_Y102] | 3.48
TEAEPYFCSLR [NPHS1_Y1138_R1140C_YF] | 1.51
PDNEPYIFKVF [PIK3AP1_Y553] | 2.79
LKGQVYILVRE [ASS1_Y359_G362V] | 1.14
RNAAEYLLSSG [ABL1_Y139] | 0.667
EDGCIYPGTIA [SMN1_Y109_A111G] | 1.04
VNKIFHPDFIV [LIG3_Y768_Y768H_YF] | 0.695
ALKWGYTVKGI [OAT_Y158_R154L] | 1.01
GISDEYHVIRH [GCDH_Y398] | 0.633
DFFDLYGGQKF [PTPN11_Y66_E69Q_YF] | 0.931

Sequence | phosphorylation enrichment
FPLAEYTEVKT [ALDH1A3_Y497_A493P_YF] | 1.01
VSSSDYFSFVL [USP24_Y2138_Y2134S] | 8.84
QEGPEYWDQNT [HLA-A_Y83_E87N] | 1.36
LSDGPYSNSFE [EPOR_Y485_P488S_YF] | 1.18
SSMIDYNTLEK [MYOC_Y479_P481T] | 0.904
GEDEPYSEPYA [APBA1_Y183] | 1.15
NWGKKYPTCNS [PTPRZ1_Y53] | 0.85
HEVHIYEKSGA [ARPC1B_Y35] | 1.06
FSAPNYCYRCG [PPP2CA_Y265] | 0.501
YQSKHYACIRQ [TIMP3_Y182] | 0.626
HNVAIYEGFAL [ACTC1_Y168_P166A_YF] | 0.972
ILGTYYETGSI [PAX2_Y73_R71T] | 1.28
ILGTFYETGSI [PAX2_Y73_R71T_YF] | 0.871
FESPRYLQVHI [FANCA_Y488] | 0.867
REEIKYMLWLS [OTC_Y55_G50R] | 1.15
ANVKWYRSGRE | 0.585

Source: the supplement of paper PMC10065799, “High-throughput profiling of sequence recognition by tyrosine kinases and SH2 domains using bacterial peptide display” (eLife, 2023)
